Experimental findings from patent US20200283478A1 (Genentech, published 2020) are described below.

Assay [1] deals with T1, His-tagged, full-length human PCSK9 (proprotein convertase subtilisin/kexin type 9) (human, UniProt A8T644 31-152; Q8NBP7 153-692).
T1 construct: also called His-PCSK9; C-terminal (His)8-tagged PCSK9
Briefly: TR-FRET competition; His-PCSK9 with LDLR-Fc as competitor ligand. Background: Time-resolved FRET reads energy transfer from a long-lived donor to a nearby acceptor.

The target in assay [2] is T1, His-tagged, full-length human PCSK9 …. Briefly: TR-FRET competition; His-PCSK9 with EGF(A)-Fc as competitor ligand.
In assay [3] the target is T2, PCSK9Δhelix (human PCSK9 lacking the P' helix, His-tagged) (human, UniProt Q8NBP7 31-152; Q8NBP7 168-692).
T2 construct: Construct M1-Q692 with an engineered TEV site (Y166 and R167 deleted, ENLYFQS inserted between R165 and A168); also called His-PCSK9Δhelix; C-terminal (His)8-tagged PCSK9Δhelix
T2 sequence (Q8NBP7 31-152, stated change not applied, chain 1 of 2): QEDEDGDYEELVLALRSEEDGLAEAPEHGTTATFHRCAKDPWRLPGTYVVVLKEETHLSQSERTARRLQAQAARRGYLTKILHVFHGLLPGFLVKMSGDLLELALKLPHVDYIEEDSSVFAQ
T2 sequence (Q8NBP7 other isoform, or with tags, fused parts or gaps mutant, chain 2 of 2): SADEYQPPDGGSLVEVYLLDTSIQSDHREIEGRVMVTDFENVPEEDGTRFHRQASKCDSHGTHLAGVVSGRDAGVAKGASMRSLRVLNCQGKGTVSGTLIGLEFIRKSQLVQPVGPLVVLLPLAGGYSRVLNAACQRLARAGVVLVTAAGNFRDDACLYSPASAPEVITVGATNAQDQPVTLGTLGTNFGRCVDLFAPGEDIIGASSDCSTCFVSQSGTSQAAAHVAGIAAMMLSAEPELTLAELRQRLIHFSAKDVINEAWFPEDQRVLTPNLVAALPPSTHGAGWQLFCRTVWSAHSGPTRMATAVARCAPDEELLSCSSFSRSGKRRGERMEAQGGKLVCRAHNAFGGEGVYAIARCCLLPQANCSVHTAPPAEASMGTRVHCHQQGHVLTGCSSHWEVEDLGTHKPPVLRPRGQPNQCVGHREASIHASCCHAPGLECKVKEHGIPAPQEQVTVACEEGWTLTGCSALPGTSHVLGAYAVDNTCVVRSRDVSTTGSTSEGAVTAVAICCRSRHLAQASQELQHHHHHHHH
Briefly: TR-FRET competition; His-PCSK9Δhelix with Ab20 as competitor ligand.

Assay [4] deals with T3, PCSK9 (proprotein convertase subtilisin/kexin type 9), His-tagged, full-length (human, UniProt Q8NBP7 31-692).
T3 construct: Captured by the His tag (SPR Methods 1 and 2), amine-coupled (Method 3), or His-tagged in TR-FRET; also called His-PCSK9
T3 sequence (Q8NBP7 31-692 limits assumed): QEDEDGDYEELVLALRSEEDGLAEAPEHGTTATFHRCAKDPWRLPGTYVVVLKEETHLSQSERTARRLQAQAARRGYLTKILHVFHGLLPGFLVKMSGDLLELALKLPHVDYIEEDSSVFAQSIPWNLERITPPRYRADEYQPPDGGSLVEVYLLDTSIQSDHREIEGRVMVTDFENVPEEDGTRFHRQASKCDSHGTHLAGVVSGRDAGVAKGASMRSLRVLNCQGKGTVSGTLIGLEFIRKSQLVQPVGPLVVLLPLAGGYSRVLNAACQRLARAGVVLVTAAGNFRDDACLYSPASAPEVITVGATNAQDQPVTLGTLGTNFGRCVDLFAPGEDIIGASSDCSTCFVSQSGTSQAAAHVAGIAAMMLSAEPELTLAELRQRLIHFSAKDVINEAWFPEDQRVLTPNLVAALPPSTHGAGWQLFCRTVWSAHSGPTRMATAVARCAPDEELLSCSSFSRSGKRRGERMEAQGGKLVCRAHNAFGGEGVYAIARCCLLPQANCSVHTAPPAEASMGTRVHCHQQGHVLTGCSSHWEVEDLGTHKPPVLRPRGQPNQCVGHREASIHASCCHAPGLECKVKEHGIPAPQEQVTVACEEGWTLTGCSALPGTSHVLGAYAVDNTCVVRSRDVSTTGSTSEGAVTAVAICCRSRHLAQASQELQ
Briefly: TR-FRET competition; competitor EGF(A)-Fc binding to His-PCSK9.

Assay [5] has as its target T4, PCSK9Δhelix (human, UniProt Q8NBP7 31-152; Q8NBP7 168-692).
T4 construct: Made by TEV cleavage of human PCSK9 M1-Q692 with an engineered TEV site; The new N-terminus of the catalytic domain is S-A168; also called His-PCSK9Δhelix; PCSK9 lacking the P' helix
Briefly: TR-FRET competition; competitor Ab20 binding to His-PCSK9Δhelix.

Assay [6] addresses T2, PCSK9Δhelix (human PCSK9 lacking the P' …). Briefly: SPR (Biacore), His-tagged PCSK9Δhelix captured on NTA chip. Background: In SPR one partner is held on a chip, and binding of the other changes the refractive index at the surface.
Assay [7] has the same target. Briefly: TR-FRET competition; His-PCSK9Δhelix with Ab20 as competitor ligand. The source holds these as a separate data set.
For assay [8], the target named is T3, PCSK9 (proprotein convertase …). Briefly: SPR, Method 1 (Biacore T100, His-tagged target captured on NTA chip).
Assay [9] concerns the target T4, PCSK9Δhelix. The assay is described as above.
The target in assay [10] is T3, PCSK9 (proprotein convertase …). Briefly: TR-FRET competition; competitor EGF(A)-Fc binding to His-PCSK9. The source holds these as a separate data set.
For assay [11], the target named is T4, PCSK9Δhelix. Briefly: TR-FRET competition; competitor Ab20 binding to His-PCSK9Δhelix. The source holds these as a separate data set.

Read-outs that look alike come from different tables or passages of the source. Bridge positions count the residues as written; N and C are the ends. Square brackets hold non-standard residues; d marks the D form. hArg = N=C(N)NCCCC[C@H](N)C(=O)O

T1 sequence (A8T644 31-152, chain 1 of 2): as the sequence (Q8NBP7 31-152, stated change not applied, chain 1 of 2) above
T1 sequence (A8T644 other isoform, or with tags, fused parts or gaps, chain 2 of 2): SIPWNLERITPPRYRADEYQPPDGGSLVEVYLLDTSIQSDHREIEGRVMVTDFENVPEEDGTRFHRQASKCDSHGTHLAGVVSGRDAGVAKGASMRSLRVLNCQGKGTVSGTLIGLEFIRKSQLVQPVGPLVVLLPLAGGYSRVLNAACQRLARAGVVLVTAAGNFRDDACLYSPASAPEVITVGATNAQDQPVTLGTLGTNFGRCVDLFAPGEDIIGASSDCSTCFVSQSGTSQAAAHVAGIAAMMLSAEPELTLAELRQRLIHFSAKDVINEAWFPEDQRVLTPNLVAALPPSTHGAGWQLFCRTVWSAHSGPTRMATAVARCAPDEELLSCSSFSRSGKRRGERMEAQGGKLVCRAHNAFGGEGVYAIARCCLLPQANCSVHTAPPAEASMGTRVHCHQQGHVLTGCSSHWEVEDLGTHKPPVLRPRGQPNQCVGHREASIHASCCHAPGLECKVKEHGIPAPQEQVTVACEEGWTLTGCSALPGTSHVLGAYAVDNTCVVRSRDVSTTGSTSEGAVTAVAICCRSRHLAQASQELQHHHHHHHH
T4 sequence (Q8NBP7 31-152, stated change not applied, chain 1 of 2): as the sequence (Q8NBP7 31-152, stated change not applied, chain 1 of 2) above
T4 sequence (Q8NBP7 other isoform, or with tags, fused parts or gaps mutant, chain 2 of 2): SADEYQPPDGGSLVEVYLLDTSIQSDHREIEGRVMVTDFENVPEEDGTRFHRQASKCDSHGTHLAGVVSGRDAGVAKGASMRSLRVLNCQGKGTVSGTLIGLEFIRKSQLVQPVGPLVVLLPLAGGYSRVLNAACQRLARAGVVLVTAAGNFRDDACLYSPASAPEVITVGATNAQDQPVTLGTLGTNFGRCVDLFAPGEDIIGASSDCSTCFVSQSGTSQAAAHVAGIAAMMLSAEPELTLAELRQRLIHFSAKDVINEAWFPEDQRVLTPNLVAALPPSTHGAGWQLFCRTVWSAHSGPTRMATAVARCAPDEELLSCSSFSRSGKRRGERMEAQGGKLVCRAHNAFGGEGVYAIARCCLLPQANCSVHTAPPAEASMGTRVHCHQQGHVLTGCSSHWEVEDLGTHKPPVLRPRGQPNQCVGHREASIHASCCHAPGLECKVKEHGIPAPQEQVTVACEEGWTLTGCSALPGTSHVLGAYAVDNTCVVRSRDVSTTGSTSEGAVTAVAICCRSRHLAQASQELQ

B1: Compound 231: Ac-ESYPGWNLV(homoR)IGLLR-NH2 (peptide)
peptide: Ac-ESYPGWNLV[hArg]IGLLR-NH2
SMILES: CC[C@H](C)[C@H](NC(=O)[C@H](CCCCNC(=N)N)NC(=O)[C@@H](NC(=O)[C@H](CC(C)C)NC(=O)[C@H](CC(N)=O)NC(=O)[C@H](Cc1c[nH]c2ccccc12)NC(=O)CNC(=O)[C@@H]1CCCN1C(=O)[C@H](Cc1ccc(O)cc1)NC(=O)[C@H](CO)NC(=O)[C@H](CCC(=O)O)NC(C)=O)C(C)C)C(=O)NCC(=O)N[C@@H](CC(C)C)C(=O)N[C@@H](CC(C)C)C(=O)N[C@@H](CCCNC(=N)N)C(N)=O
B1: the half-inhibitory concentration (IC50) (commonly the concentration at which inhibition is half-maximal) in [1] is greater than 50000 nM; in assay [2], 15800 nM; in [3], 1490 nM.

B2: Compound 227: Ac-ESFPGWNLV(homoR)IGLLR-NH2 (peptide)
peptide: Ac-ESFPGWNLV[hArg]IGLLR-NH2
SMILES: CC[C@H](C)[C@H](NC(=O)[C@H](CCCCNC(=N)N)NC(=O)[C@@H](NC(=O)[C@H](CC(C)C)NC(=O)[C@H](CC(N)=O)NC(=O)[C@H](Cc1c[nH]c2ccccc12)NC(=O)CNC(=O)[C@@H]1CCCN1C(=O)[C@H](Cc1ccccc1)NC(=O)[C@H](CO)NC(=O)[C@H](CCC(=O)O)NC(C)=O)C(C)C)C(=O)NCC(=O)N[C@@H](CC(C)C)C(=O)N[C@@H](CC(C)C)C(=O)N[C@@H](CCCNC(=N)N)C(N)=O
B2: the IC50 is greater than 50000 nM in assay [1], 23200 nM in assay [2] and 2510 nM in [3].

B3: Compound 230: Ac-DSYPGWNLV(homoR)IGLLR-NH2 (peptide)
peptide: Ac-DSYPGWNLV[hArg]IGLLR-NH2
SMILES: CC[C@H](C)[C@H](NC(=O)[C@H](CCCCNC(=N)N)NC(=O)[C@@H](NC(=O)[C@H](CC(C)C)NC(=O)[C@H](CC(N)=O)NC(=O)[C@H](Cc1c[nH]c2ccccc12)NC(=O)CNC(=O)[C@@H]1CCCN1C(=O)[C@H](Cc1ccc(O)cc1)NC(=O)[C@H](CO)NC(=O)[C@H](CC(=O)O)NC(C)=O)C(C)C)C(=O)NCC(=O)N[C@@H](CC(C)C)C(=O)N[C@@H](CC(C)C)C(=O)N[C@@H](CCCNC(=N)N)C(N)=O
With B3, the IC50 in [1] was greater than 50000 nM; in [2], 24200 nM; in [3], 2420 nM.
With Ac-TVFTSWEEYLDWVGGSGCWNLKRIGSQGC-NH2 (disulfide 18-29 (inferred), Two Cys, disulfide-cyclized) [Compound 13], the IC50 in assay [4] worked out at 10 nM; with PCSK9Δhelix [5], 1 nM.
In the same order, the values of Ac-TVFTSWEEYLDWVGSGGCWNLKRIGSQGC-NH2 (disulfide 18-29 (inferred), Two Cys, disulfide-cyclized) [Compound 14] are 9 nM and 1 nM.
Ac-MPWNLVRIGLLR-NH2 [Compound 51: Ac-MPWNLVRIGLLR-NH2]: the affinity in assay [6], expressed as Kd, was 1400 nM. Further, the IC50 in assay [7] came to 6600 nM.
For the molecule Ac-WNLVRIGLLR-NH2 [Compound 53: Ac-WNLVRIGLLR-NH2], in [6], binding was characterised by a dissociation constant (Kd) of 14000 nM. The molecule further came in with an IC50 in assay [7] of 52400 nM.
As to SGDLMPWNLVRIGLLR (Free N- and C-termini as printed) [Compound 28], the results for the Kd (in [8]; with PCSK9Δhelix [9]) were 46100 nM and 856 nM, respectively.

B4: Compound 19 (peptide)
peptide: Ac-TVFTSWEEYLDWVGSGCRLPWNLQRIGLPC-NH2
modifications: disulfide 17-30 (inferred)
notes: Two Cys, disulfide-cyclized; also called Pep2-8p4; Pep2-8_K9gvpep4
In the case of B4, the IC50 in assay [4] was found to be 9 nM; in the assay with PCSK9Δhelix [5], 2 nM. The results for the Kd (in [8]; in the assay with PCSK9Δhelix [9]) were 2.07 nM and 0.0989 nM, respectively.
Turning to Ac-TVFTSWEEYLDWVGSGGCRLPWNLQRIGLPC-NH2 (disulfide 18-31 (inferred), Two Cys, disulfide-cyclized) [Compound 25], the IC50 in [4] amounted to 781 nM; with PCSK9Δhelix [5], 83 nM.
As for Ac-TVFTSWEEYLDWVGSGGCFLPWNLQRIGLLC-NH2 (disulfide 18-31 (inferred), Two Cys, disulfide-cyclized) [Compound 38], the IC50 came out at 471 nM in [4] and 3 nM with PCSK9Δhelix [5].
On to Ac-DLMPWNLVRIGLLR-NH2 [Compound 35: Ac-DLMPWNLVRIGLLR-NH2], for which binding in assay [6] was put at a Kd of 1380 nM. In assay [7], this molecule returned an IC50 of 7900 nM.
Consider Ac-WNLV[hArg]IGLLR-NH2 [Compound 192: Ac-WNLV(homoR)IGLLR-NH2], for which the affinity in assay [6], expressed as Kd, was 1000 nM. The IC50 was greater than 50000 nM in assay [1], greater than 50000 nM in assay [2], 5600 nM in assay [7] and 5550 nM in assay [3].

B5: Compound 229: Ac-MESFPGWNLV(homoR)IGLLR-NH2 (peptide)
peptide: Ac-MESFPGWNLV[hArg]IGLLR-NH2
SMILES: CC[C@H](C)[C@H](NC(=O)[C@H](CCCCNC(=N)N)NC(=O)[C@@H](NC(=O)[C@H](CC(C)C)NC(=O)[C@H](CC(N)=O)NC(=O)[C@H](Cc1c[nH]c2ccccc12)NC(=O)CNC(=O)[C@@H]1CCCN1C(=O)[C@H](Cc1ccccc1)NC(=O)[C@H](CO)NC(=O)[C@H](CCC(=O)O)NC(=O)[C@H](CCSC)NC(C)=O)C(C)C)C(=O)NCC(=O)N[C@@H](CC(C)C)C(=O)N[C@@H](CC(C)C)C(=O)N[C@@H](CCCNC(=N)N)C(N)=O
As for B5, the IC50 in [1] came out at 25000 nM; in [2] it was 8300 nM; in assay [3] it was 840 nM.
In turn, Ac-TVFTSWEEYLDWVGSGCWNLKRVGSQGC-NH2 (disulfide 17-28 (inferred), Two Cys, disulfide-cyclized) [Compound 12] returned an IC50 in assay [4] of 190 nM.
As for Ac-PWNLVRIGLLR-NH2 [Compound 52: Ac-PWNLVRIGLLR-NH2], binding in assay [6] was characterised by a dissociation constant (Kd) of 2100 nM. Also, the IC50 in assay [7] was found to be 15900 nM.
For the molecule Ac-LMPWNLVRIGLLR-NH2 [Compound 50: Ac-LMPWNLVRIGLLR-NH2], the affinity in assay [6], expressed as Kd, was 470 nM. This molecule also returned an IC50 in assay [7] of 3600 nM.
Turning to Ac-TVFTSWEEYLDWVGSGDLMPWNLVRIGLLR-NH2 (also called Pep2-8p7; Pep2-8_K9gvpep7) [Compound 20], the IC50 in assay [10] was 37 nM; in the assay with PCSK9Δhelix [11] it was 1 nM. Also, the results for the Kd (in [8]; in the assay with PCSK9Δhelix [9]) were 5.56 nM and 0.366 nM, respectively.

B6: Compound 228: Ac-SFAFPGWNLV(homoR)IGLLR-NH2 (peptide)
peptide: Ac-SFAFPGWNLV[hArg]IGLLR-NH2
SMILES: CC[C@H](C)[C@H](NC(=O)[C@H](CCCCNC(=N)N)NC(=O)[C@@H](NC(=O)[C@H](CC(C)C)NC(=O)[C@H](CC(N)=O)NC(=O)[C@H](Cc1c[nH]c2ccccc12)NC(=O)CNC(=O)[C@@H]1CCCN1C(=O)[C@H](Cc1ccccc1)NC(=O)[C@H](C)NC(=O)[C@H](Cc1ccccc1)NC(=O)[C@H](CO)NC(C)=O)C(C)C)C(=O)NCC(=O)N[C@@H](CC(C)C)C(=O)N[C@@H](CC(C)C)C(=O)N[C@@H](CCCNC(=N)N)C(N)=O
On to B6, for which the figures for the IC50 in assay [1], in assay [2] and in [3] were 30400 nM, 13200 nM and 1370 nM, respectively.
In the case of H-SGCFIPWNLQRIGLLC-NH2 (disulfide 3-16 (inferred), Two Cys, disulfide-cyclized) [Compound 26], the Kd – broadly, the concentration at which binding is half-saturated – in assay [8] came to 29000 nM; in the assay with PCSK9Δhelix [9], 802 nM.
